US20230272048A1 (UNIVERSITY OF MELBOURNE, published 2023)

B1: VRC01 (antibody, V domains shown)
VH: QVQLVQSGGQMKKPGESMRISCRASGYEFIDCTLNWIRLAPGKRPEWMGWLKPRGGAVNYARPLQGRVTMTRDVYSDTAFLELRSLTVDDTAVYFCTRGKNCDYNWDFEHWGRGTPVIVSS
VL: EIVLTQSPGTLSLSPGETAIISCRTSQYGSLAWYQQRPGQAPRLVIYSGSTRAAGIPDRFSGSRWGPDYNLTISNLESGDFGVYYCQQYEFFGQGTKVQVDI
B2: 1842 heavy chain with NC-Cow1 light chain (antibody)
VH: KVQLQESGPSLVKPSQTLSLTCTASGFSLSDKAVGWVRQAPGQALEWLGSIDTGGNADYNPGLKSRLSITKDNAKSQVSLSVSSVTTEGSATYYCSTVHQKTLRSCPSDYPYICDCEDTGSHCCRATNCPYYCNHGRDRMCTGRTYTYEWHVEAWGQGLLVTVSS
VL: HSYELTQPSSVSGSLGQRVSVTCSGSSSNVGNGYVSWYQLIPGSAPRTIIYGDTSRASGVPERFSGSRSGNTATLTISSLQAEDEADFFCASPDDSSSNAVFGSGTTLTVL
B3: 1872 heavy chain with NC-Cow1 light chain (antibody)
VH: KVQLRESGPSLVKPSQTLSLTCTASGFSLSDKAVGWVRQAPGQPLEWLGTIDTTGNAVYNPGLKSRLSITKDNSKSQVSLSLSSVTTEDSATYHCSTVHQKTRRSCPSDYSFICDCEGTGSHCCRASNCPYYCNYGRDRMCTGRSNIHEWHVDAWGQGLLVTVSS
VL: B2 VL

Target: AD8 WT Env (gp160, from lysed pseudovirions / on pseudovirus) (HIV-1 AD8, clade B)
Experiment: cell-based or functional assay

Binder	IC50 (read off the curve); axis Neutralisation (%), panel AD8 [ng/mL]
B1	~300
B2	~5
B3	~7
